Columns and labels:
[1] = Size exclusion chromatography (analytical gel filtration), oligomeric state; type: physicochemical; settings: 100 μM; 50 mM NaPi, 150 mM NaCl, pH 7.0; superdex 75 5/150
Description: FIG. 7A-7B. […] FIG. 7A: Analytical ultracentrifugation. Solutions of apo- and holo-PS1 were centrifuged at speeds ranging from 25,000 r.p.m. to 45,000 r.p.m. and monitored by absorbance at 280 nm. Parameters were globally fit to the data. Single-species fitting agrees well with the data over the entire range and yields the molecular weight of apo-PS1 […] and holo-PS1 12.24±0.91 kD, which agrees well with the 12.86 kD weight of PS1. […] Partial specific volumes were estimated from SEDNTERP^15 for amino acid side chains. FIG. 7B: Analytical gel filtration analysis of apo- and holo-PS1. Detection wavelengths are labeled as the same color as their respective curves. […] The small peak near 1.05 ml elution volume in holo-PS1 is unbound (excess), aggregated porphyrin eluting in the void volume of the superdex 75 5/150 column. Samples were run at concentrations of 100 μM and 37 μM for apo and holo, respectively, in 50 mM NaPi, 150 mM NaCl, pH 7.0 buffer.
Gel filtration profiles were obtained using a Superdex 75 5/150 column on an FPLC system (GE Healthcare AKTA). […] The approximate molecular weight (MWapp) was calculated from a standard curve obtained with the GE LMW standard protein kit. […]

[2] = Porphyrin binding titration to determine KD (apo-PS1 titrated into (CF3)4PZn, absorbance at 423 nm); settings: water-insoluble porphyrin solubilized with 1% w/v octylglucopyranoside detergent; 100 mM NaCl, 50 mM NaPi, pH 7.5; read-out: dissociation constant of binding, KD
Protocol: FIGS. 3A-3D. Biophysical characterization of apo- and holo-PS1. FIG. 3A: Electronic absorption and emission spectra of (CF3)4PZn/PS1 holo-protein and (CF3)4PZn in toluene solvent. […] FIG. 3B: Determination of KD by apo-PS1 titration into a buffer solution (100 mM NaCl, 50 mM NaPi, pH 7.5) of (CF3)4PZn with 1% w/v octyl-b-D-glucopyranoside. […] FIG. 3C: Circular dichroism (CD) spectra of apo- and holo-PS1 in 50 mM NaPi, 100 mM NaCl, pH 7.5 as a function of temperature. The transitions appear reversible based on the fact that the spectra are identical after cooling to room temperature. Units are in molar residue ellipticity. […] FIG. 3D: Pump-probe transient absorption spectra of (CF3)4PZn bound in the interior of holo-PS1 at 21° C. and 100° C. […] Inset exemplifies identical transient dynamics (primarily intersystem crossing from S1 to T1) at ΔAbs.=482 nm (scaled). […]
2 μM of (CF3)4PZn was solubilized in a 1 mL solution of 50 mM NaPi, 100 mM NaCl, pH 7.5 buffer by inclusion of 1% w/v octyl-b-D-glucopyranoside. 2 μL of a 102 uM stock of apo-PS1 (0.2 μM aliquots) was titrated into the 1 mL solution containing the porphyrin, and an electronic absorption spectrum was measured until >2.5 equivalents of protein were added. Absorbance changes at 423 nm, due to His-Zn coordination-induced spectral shifts of the porphyrin, were fit to a single-site, protein-ligand binding model.

[3] = Hydrogen-deuterium exchange measurements by 2D 15N HSQC NMR; type: physicochemical
Protocol: FIGS. 5A-5F. Apo- and holo-PS1 share similar folded cores and differ in the binding region. FIG. 5A: 2D ^1H-^15N HSQC spectra acquired for apo- and holo-PS1. Experimental conditions: 0.78 mM at 298K, 50 mM NaPi, 100 mM NaCl, pH 7.5, in 5% D2O. Resonance assignments are indicated using the one-letter amino acid code. Signals arising from side chains (Asn HD2/ND2, Gln HE2/NE2, Arg HE/NE and Trp HE1/NE1) are also labeled. The residues belonging to the binding region and folded core are color-coded as in (FIG. 5B). Non-helical residues are labeled in cyan font face. […] A dashed box surrounds 90% of the backbone resonances of apo-PS1 and is also placed at the same position in the holo-PS1 spectrum. Arrows point to resonances of residues within the binding region that change dramatically upon binding of the cofactor. FIG. 5B: Solution NMR structures of apo-PS1 and holo-PS1. […] FIG. 5C: Hydrogen-deuterium exchange protection factors (PF) measured for apo- and holo-PS1, mapped onto the centroid structure of holo-PS1. Backbone amide nitrogens of residues with determined PFs are shown as spheres. […]
For the measurements of H/D exchange rates, a series of 2D ^15N HSQC spectra were obtained on a 900 MHz Bruker Avance II spectrometer. The first spectra were recorded 9 minutes after the dilution of 100 μl of a high concentration sample in H2O (2 mM for apo and 1.2 mM for holo) into 200 μl D2O buffer. […]

Kd [2]: 45 nM
B1: PS1: de novo designed porphyrin-binding four-helix bundle protein; designed sequence SEQ ID NO:1, expressed His-tag-cleaved sequence SEQ ID NO:2 (protein)
chain: SEFEKLRQTGDELVQAFQRLREIFDKGDDDSLEQVLEEIEELIQKHRQLFDNRQEAADTEAAKQGDQWVQLFQRFREAIDKGDKDSLEQLLEELEQALQKIRELAEKKN
degree of dimerization relative to the monomer peak [1]: < 5%
protection of the backbone surrounding the apolar core from solvent H/D exchange [3]: highly protected from exchange
